# From publication PMC6212785, “RGG-box in hnRNPA1 specifically recognizes the telomere G-quadruplex DNA and enhances the G-quadruplex unfolding ability of UP1 domain”
# Legend:
# UP1+RGG [1] = biological target: T1, UP1+RGG (UniProt P09651-2 1-249); assay: ITC; 100 mM KCl; ITC/CD: 20 mM Tris-Cl pH 8, 100 mM NaCl or KCl, 25 C; NMR: 10 mM sodium or potassium phosphate pH 6.5, 100 mM NaCl or KCl, 298 K; conditions: protein: recombinant, tags: C-terminal 6xHis (pET28a), chain copies: 2
# UP1 [2] = biological target: T2, UP1 (UniProt P09651-2 1-196); assay: as above; conditions: protein: recombinant, tags: C-terminal 6xHis (pET28a), chain copies: 2
# T2 sequence (P09651 1-196): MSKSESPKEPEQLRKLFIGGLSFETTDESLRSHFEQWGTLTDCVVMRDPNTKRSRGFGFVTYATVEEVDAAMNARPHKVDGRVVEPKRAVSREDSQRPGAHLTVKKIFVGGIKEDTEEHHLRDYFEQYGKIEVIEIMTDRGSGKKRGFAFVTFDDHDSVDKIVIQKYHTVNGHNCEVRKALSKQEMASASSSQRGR
# UP1+RGG [3] = biological target: T1, UP1+RGG; assay: ITC; 100 mM NaCl; ITC/CD: 20 mM Tris-Cl pH 8, 100 mM NaCl or KCl, 25 C; NMR: 10 mM sodium or potassium phosphate pH 6.5, 100 mM NaCl or KCl, 298 K; conditions: protein: recombinant, tags: C-terminal 6xHis (pET28a), chain copies: 2
# UP1 [4] = biological target: T2, UP1; assay: as above; conditions: protein: recombinant, tags: C-terminal 6xHis (pET28a), chain copies: 2
# RGG-box = RGG-box (UniProt P09651-2 197-249); assay: NMR 15N-1H HSQC titration; apparent Kd, global fit of 14 residues (individual 151-433 uM); ITC/CD: 20 mM Tris-Cl pH 8, 100 mM NaCl or KCl, 25 C; NMR: 10 mM sodium or potassium phosphate pH 6.5, 100 mM NaCl or KCl, 298 K; conditions: protein: recombinant; tags: N-terminal GST removed by TEV; intramolecular G4 (monomeric)
# Sequence of RGG-box (P09651 197-249): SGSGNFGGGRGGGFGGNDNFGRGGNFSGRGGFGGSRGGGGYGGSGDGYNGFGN
# T1 sequence (P09651 1-249): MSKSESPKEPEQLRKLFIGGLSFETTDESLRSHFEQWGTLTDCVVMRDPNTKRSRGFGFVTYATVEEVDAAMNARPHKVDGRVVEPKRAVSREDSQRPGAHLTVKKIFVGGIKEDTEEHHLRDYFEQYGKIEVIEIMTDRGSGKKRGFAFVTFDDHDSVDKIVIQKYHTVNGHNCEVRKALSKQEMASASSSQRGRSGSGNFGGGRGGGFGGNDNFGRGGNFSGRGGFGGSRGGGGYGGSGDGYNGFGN
Binder,Kd (UP1+RGG [1]; single strand),Kd (UP1 [2]; single strand),Kd (UP1+RGG [3]; single strand),Kd (UP1 [4]; single strand),Kd (UP1+RGG [1]; intramolecular G4 (monomeric)),Kd (UP1 [2]; intramolecular G4 (monomeric)),Kd (UP1+RGG [3]; intramolecular G4 (monomeric)),Kd (UP1 [4]; intramolecular G4 (monomeric)),Kd (RGG-box)
AGGATTAGGATTAGGATTAGGA (ssDNA) [Tel22ss],1110 ± 150 nM,1230 ± 140 nM,1040 ± 150 nM,1200 ± 310 nM,–,–,–,–,–
AGGGTTAGGGTTAGGGTTAGGG (structured_DNA) [Tel22 G-quadruplex],–,–,–,–,4850 ± 600 nM,5620 ± 1090 nM,600 ± 130 nM,710 ± 140 nM,349000 ± 35000 nM
